These are literature values, as cited in paper PMC6828933.

In the series the target is eNOS (Homo sapiens) (UniProt P29474).
Chain of UniProt P29474 (P29474 2-1203): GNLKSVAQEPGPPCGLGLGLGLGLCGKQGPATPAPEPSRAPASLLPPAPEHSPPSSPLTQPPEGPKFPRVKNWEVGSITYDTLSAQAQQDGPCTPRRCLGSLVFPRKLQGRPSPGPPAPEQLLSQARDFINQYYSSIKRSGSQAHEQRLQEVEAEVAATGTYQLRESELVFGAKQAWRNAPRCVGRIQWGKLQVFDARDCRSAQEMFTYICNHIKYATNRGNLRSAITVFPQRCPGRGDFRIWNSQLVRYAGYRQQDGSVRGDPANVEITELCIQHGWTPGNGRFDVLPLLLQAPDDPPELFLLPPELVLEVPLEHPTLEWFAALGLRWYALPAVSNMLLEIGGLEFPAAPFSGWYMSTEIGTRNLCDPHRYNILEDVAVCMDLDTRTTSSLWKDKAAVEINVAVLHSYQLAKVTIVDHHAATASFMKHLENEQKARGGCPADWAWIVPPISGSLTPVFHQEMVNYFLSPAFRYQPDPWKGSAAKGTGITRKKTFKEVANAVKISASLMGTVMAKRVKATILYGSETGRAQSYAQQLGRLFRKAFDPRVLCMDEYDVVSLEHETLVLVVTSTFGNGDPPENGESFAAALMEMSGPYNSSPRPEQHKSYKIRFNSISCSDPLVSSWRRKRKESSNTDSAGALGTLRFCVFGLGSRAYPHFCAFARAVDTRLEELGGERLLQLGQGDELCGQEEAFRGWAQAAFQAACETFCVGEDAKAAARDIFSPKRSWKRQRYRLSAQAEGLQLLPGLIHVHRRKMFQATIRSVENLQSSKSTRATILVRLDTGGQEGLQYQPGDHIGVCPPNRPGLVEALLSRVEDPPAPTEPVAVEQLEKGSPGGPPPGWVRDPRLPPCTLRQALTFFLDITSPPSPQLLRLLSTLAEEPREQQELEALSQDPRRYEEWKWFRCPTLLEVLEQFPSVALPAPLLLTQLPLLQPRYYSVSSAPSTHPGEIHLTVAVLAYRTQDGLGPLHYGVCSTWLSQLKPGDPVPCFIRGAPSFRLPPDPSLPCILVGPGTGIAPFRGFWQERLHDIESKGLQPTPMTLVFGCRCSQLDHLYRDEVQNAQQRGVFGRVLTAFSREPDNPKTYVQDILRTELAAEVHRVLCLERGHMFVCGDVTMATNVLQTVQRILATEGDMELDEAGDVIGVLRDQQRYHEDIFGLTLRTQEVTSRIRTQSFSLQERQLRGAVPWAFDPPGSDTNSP

The term Kd denotes the constant that tells how readily two partners part at equilibrium. For the substance Caveolin-1 90-99 (from UniProt Q03135), the Kd is 42 nM.
